Measurements taken from patent publication US20240293512A1 (HANMI PHARM, published 2024).
Bridge positions count the residues as written; N and C are the ends. Square brackets hold non-standard residues; d marks the D form. Ends that are not written are not given here. * marks the point of attachment. Acetyl(2-(4-imidazolyl)) = O=C(Cc1c[nH]cn1)*; Aib = CC(C)(N)C(=O)O

B1: triple agonist of SEQ ID NO: 19 (peptide)
peptide: [Acetyl(2-(4-imidazolyl))]GQGTFTSDLSIQYDSEHQRDFIEWLKDTGPSSGAPPPSHG
B2: triple agonist of SEQ ID NO: 21 (peptide)
peptide: Y[Aib]QGTFTSDYSKYLDECRAKEFVQWLLDHHPSSGQPPPS
modifications: bridge 16-20
B3: triple agonist of SEQ ID NO: 100 (peptide)
peptide: Y[Aib]QGTFTSDYSKALDEKAAKEFVQWLLDQHPSSGQPPPSC
modifications: bridge 16-20
B4: triple agonist of SEQ ID NO: 26 (peptide)
peptide: H[Aib]QGTFTSDCSKYLDSRAAQDFVQWLLDGGPSSGAPPPS
B5: triple agonist of SEQ ID NO: 14 (peptide)
peptide: [Acetyl(2-(4-imidazolyl))]GQGTFTSDYSIQLDEIAVRDFVEWLKNGGPSSGAPPPSHG
B6: triple agonist of SEQ ID NO: 25 (peptide)
peptide: H[Aib]QGTFTSDCSKYLDERAAQDFVQWLLDGGPSSGAPPPS
B7: triple agonist of SEQ ID NO: 31 (peptide)
peptide: H[Aib]QGTFTSDYSKYLDEKACKEFVQWLLAQ
modifications: bridge 16-20
B8: triple agonist of SEQ ID NO: 2 (peptide)
peptide: H[Aib]QGTFTSDVSSYLDGQAQKEFIAWLVKGC
B9: triple agonist of SEQ ID NO: 97 (peptide)
peptide: Y[Aib]QGTFTSDYSKYLDEKRAKEFVQWLLDCHPSSGQPPPS
modifications: bridge 16-20
B10: triple agonist of SEQ ID NO: 13 (peptide)
peptide: [Acetyl(2-(4-imidazolyl))]GEGTFISDYSIQLDEIAVQDFVEWLLAQKPSSGAPPPSHG
B11: triple agonist of SEQ ID NO: 23 (peptide)
peptide: Y[Aib]QGTFTSDYSKYLDECRAKEFVQWLLAQKGKKNDWKHNIT
modifications: bridge 16-20
B12: triple agonist of SEQ ID NO: 11 (peptide)
peptide: [Acetyl(2-(4-imidazolyl))]GEGTFTSDLSKYLDSRRQQLFVQWLKAGGPSSGAPPPSHG
B13: triple agonist of SEQ ID NO: 17 (peptide)
peptide: [Acetyl(2-(4-imidazolyl))]GQGTFTSDLSKQMDEERAREFIEWLLAQKPSSGAPPPSHG
B14: triple agonist of SEQ ID NO: 22 (peptide)
peptide: Y[Aib]QGTFTSDYSKCLDEKRAKEFVQWLLDHHPSSGQPPPS
modifications: bridge 16-20

biological target: T1, human GIP receptor (human, UniProt P48546 22-466); assay: cell-based or functional assay
T1 sequence (looked up): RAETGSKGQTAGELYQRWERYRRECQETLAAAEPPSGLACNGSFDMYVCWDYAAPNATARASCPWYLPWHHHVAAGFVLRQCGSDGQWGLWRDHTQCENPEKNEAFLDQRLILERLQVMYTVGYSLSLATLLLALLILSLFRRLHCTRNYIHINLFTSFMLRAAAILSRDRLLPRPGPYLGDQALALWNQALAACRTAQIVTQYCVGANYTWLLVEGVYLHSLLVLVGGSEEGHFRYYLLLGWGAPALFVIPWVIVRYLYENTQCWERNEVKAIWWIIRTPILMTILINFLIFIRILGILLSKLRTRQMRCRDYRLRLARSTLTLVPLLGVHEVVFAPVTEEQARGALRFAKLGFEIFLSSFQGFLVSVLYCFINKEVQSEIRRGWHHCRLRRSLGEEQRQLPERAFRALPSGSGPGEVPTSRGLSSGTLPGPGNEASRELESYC

Compared with B1, B2 is higher in “In vitro activity compared with native peptide (%) vs GIP (cAMP EC50)” value (“In vitro activity … (%) vs GIP (cAMP EC50)” for short): less than 0.1% for the first, 22.7% for the second.

Going from B3 to B4, the “In vitro activity … (%) vs GIP (cAMP EC50)” value falls from 118% to less than 0.1%.

B5 and B6 cannot be ordered by “In vitro activity … (%) vs GIP (cAMP EC50)” value: less than 0.1% for the first, less than 0.1% for the second.

First: B7
Second: B8
The “In vitro activity … (%) vs GIP (cAMP EC50)” value of the first is higher: 2.4% for the first, less than 0.1% for the second.

Going from B9 to B10, the “In vitro activity … (%) vs GIP (cAMP EC50)” value falls from 2.6% to less than 0.1%.

B11 and B12 cannot be ordered by “In vitro activity … (%) vs GIP (cAMP EC50)” value: less than 0.1% for the first, less than 0.1% for the second.

First: B13
Second: B14
The “In vitro activity … (%) vs GIP (cAMP EC50)” value of the first is lower: less than 0.1% for the first, 59.7% for the second.

biological target: human GCG receptor (human, UniProt P47871 26-477); assay: cell-based or functional assay
Sequence (P47871 26-477): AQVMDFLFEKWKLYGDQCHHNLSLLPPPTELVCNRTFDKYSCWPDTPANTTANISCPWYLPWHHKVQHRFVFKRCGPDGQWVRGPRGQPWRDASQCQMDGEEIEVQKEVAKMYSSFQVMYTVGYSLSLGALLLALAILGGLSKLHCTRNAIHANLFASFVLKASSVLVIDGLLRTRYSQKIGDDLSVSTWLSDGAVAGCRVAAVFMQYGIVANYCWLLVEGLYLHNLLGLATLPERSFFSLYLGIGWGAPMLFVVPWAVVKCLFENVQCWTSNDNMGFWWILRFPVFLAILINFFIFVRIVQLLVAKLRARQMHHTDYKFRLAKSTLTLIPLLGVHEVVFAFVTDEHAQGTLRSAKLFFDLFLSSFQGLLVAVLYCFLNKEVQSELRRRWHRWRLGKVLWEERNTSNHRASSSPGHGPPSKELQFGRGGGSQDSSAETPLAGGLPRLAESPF

First: B1
Second: B2
The “In vitro activity compared with native peptide (%) vs Glucagon (cAMP EC50)” value (“In vitro activity … (%) vs Glucagon (cAMP EC50)” for short) of the first is lower: less than 0.1% for the first, 267% for the second.

Going from B3 to B4, the “In vitro activity … (%) vs Glucagon (cAMP EC50)” value falls from 12.7% to 0.2%.

First: B5
Second: B6
The “In vitro activity … (%) vs Glucagon (cAMP EC50)” value of the first is lower: less than 0.1% for the first, 0.1% for the second.

Going from B7 to B8, the “In vitro activity … (%) vs Glucagon (cAMP EC50)” value falls from 2.2% to less than 0.1%.

First: B9
Second: B10
The “In vitro activity … (%) vs Glucagon (cAMP EC50)” value of the first is higher: 62.8% for the first, less than 0.1% for the second.

Going from B11 to B12, the “In vitro activity … (%) vs Glucagon (cAMP EC50)” value falls from 9.3% to less than 0.1%.

Going from B13 to B14, the “In vitro activity … (%) vs Glucagon (cAMP EC50)” value rises from less than 0.1% to 140%.

biological target: human GLP-1 receptor (human, UniProt P43220 24-463); assay: cell-based or functional assay

Going from B1 to B2, the “In vitro activity compared with native peptide (%) vs GLP-1 (cAMP EC50)” value (from here on “In vitro activity … (%) vs GLP-1 (cAMP EC50)”) rises from less than 0.1% to 17.8%.

Compared with B3, B4 is higher in “In vitro activity … (%) vs GLP-1 (cAMP EC50)” value: 42.2% for the first, 64.5% for the second.

Compared with B5, B6 is higher in “In vitro activity … (%) vs GLP-1 (cAMP EC50)” value: 28% for the first, 82.6% for the second.

First: B7
Second: B8
The “In vitro activity … (%) vs GLP-1 (cAMP EC50)” value of the first is higher: 135% for the first, 5.9% for the second.

First: B9
Second: B10
The “In vitro activity … (%) vs GLP-1 (cAMP EC50)” value of the first is higher: 10.5% for the first, less than 0.1% for the second.

First: B11
Second: B12
The “In vitro activity … (%) vs GLP-1 (cAMP EC50)” value of the first is higher: 4.01% for the first, 1.4% for the second.

First: B13
Second: B14
The “In vitro activity … (%) vs GLP-1 (cAMP EC50)” value of the first is lower: 0.2% for the first, 20.1% for the second.
